The results in this text go back to PMC2846270 (Biochemical and biophysical research communications, 2010).

This data set concerns the molecule itself. The experiment in a line: electron microscopy.

B1: Taz1pΔC (C-terminally truncated version of the Taz1 protein) (domain or fragment, S. pombe, UniProt P79005 1-556, looked up)
chain: MISVQSTETIQKVLENEGDQQFDKEVVQNSDSNIETGQISDSLTKAVEERAETESSSNLSNFTTSESESSKPAYCFNSHSQNMAEGSISIPVISHSMNVENEVSTAEGQDSRTGESENDQNAMIVRSIWDIEKASLLVNDCQNIANMAEQKVMMVSAIFSESSKDIVNPESFSERLGKETVKDLYEFNEQLTTKYGLEFRTIFFSYIRKYDAYWCLFEDLEKPLKSIQFFTGLIDLLDNTNKHLTLRSIVLDALLSADEEDSFYGDALVLFEELVIRYFGTDSNPSIDASEFILSCLPYTSLDALNVVCGQVWKSQKICDFLKSTIGNTSNSPLQLRASFPAFVNAVIHFLLEFKNVRRLERKDLSVKGMLYDSDSQQILNRLRERVSGSTAQSADEASGHESDASEDTFSERTLGLNSIDNTEISEVVSLGLVSSALDKITGLLSADNLSETVSQARDFSHTLSKSLKSRAKSLSQKEAANRSKLIAKRGDNLRREASLSSEQDDLSEDFPPVRESDEQESRSGGRSSAMRVSIERSAARSGTRRSQGNPYEGYR
B1: the binding result was “binds”.
